From the nanobody polyreactivity screen of Harvey et al. (2022)

Experiment: yeast display, Sf9 membrane polyspecificity reagent, FACS + sequencing; frameworks hold sequencing errors
Method in brief: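 Sorting gates, low and high (top ~1%), were placed on anti-HA fluorescence to track expression and on streptavidin fluorescence to track reagent binding. A clone's polyreactivity label is taken from the gate it came out of. The reagent was 10% biotinylated, detergent-solubilized Sf9 membrane, applied for 1 hour at 4 °C to galactose-induced yeast display cells.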

Sequence | polyreactivity (PSR sort gate)
QVQLVESGGGLLKAGGSLRLTCAASGRIFSSYDMGWYRQAPGKERELVAAISNSGGNTYYADSVKGRFTISRDNAKNTVYLQMNSLKPEDTAVYYCAAVAFWAIFDFYWYYPYEYDYWGQGTQVTVSS | high polyreactivity
QVQLVESGGGLLKAGRSLRLSCAASGRIFGYYAMGWYRQAPGKERELVAAISTGGGRTYYADSVKGRFTISRDNAKNTVYLQMNSLKPEDTAVYYCAARLKWGWPTYDYWGQGTQVTVSS | high polyreactivity
QVQLVESGGGLLQAAGSLRLSCAASGIIFHIYAMGWYRQAPGKERELVAAISTGSSTYYADSVKGRFTISRDNAKNTVYLQMKSLKPEDTAVYYCNAVSRLLWVKGFDYWGQGTQVTVSS | low polyreactivity
QVQLVESGGGLLQAGGSLRISCAASVSIFYHYAMGWYRQAPGKERELVAAISWRGGSTNYADSVKGRFTISRDNAKNTVYLQMNSLKPEDSAVYYCNAVQRRREYYWGQGTQVTVSS | high polyreactivity
QVQLVESGGGLLQAGGSLRLSCAASGIFGRYAMGWYRQAPGKERELVAGISWSGVRTYYADSVKGRFTISRDNAKNTVYLQINSLKPEDTSVYYCPARPWNDGYYVGRFHMDYWGQGTQVTVSS | low polyreactivity
QVQLVESGGGLLQAGGSLRLSCAASGIIFRGYSMGWYRPAPGKERELVASITRRGGSTRYADSVKGRFTISRDNAKNTVYLQMNSLKPEDTPVYYCAAVGVGKTSTAYGYWGQGTQVNVSS | high polyreactivity
QVQLVESGGGLLQAGGSLRLSCAASGITFGRNTMGWYRQAPGKERELVAAINSGGSTTYADSVKGRFTISRDNAKNTVYLQMISLKPEDSAVYYCNKSSTGWTATYDYWGQGTQVTVSS | low polyreactivity
QVQLVESGGGLLQAGGSLRLSCAASGITFRFYAMGGYRQAPGKEREFVAAISCRGGRTYYADSVKGRFTISRDNAKNTVYIQMNSLKPEDTAVYYCAADFYYRTVATVTSVARYDYWGQGTQVTVSS | high polyreactivity
QVQLVESGGGLLQAGGSLRLSCAASGNIFGWYAMGWYRQAPGKERELVAAISSGGRTNYADSVKGRFTISRDNAKNTVYLQMNSLKPEDTAVYYCATPLQQLYGYWGQGTQVSVSS | low polyreactivity
QVQLVESGGGLLQAGGSLRLSCAASGPTFAYYAMGWYRQATGKERELVAAIDSSGGSTYYADSVKGRFTISRDNSNNSVYLQMNSLKPEDTAVNYCAASYPYDRYDQGGFGYWGQGTQVTVSS | low polyreactivity
QVQLVESGGGLLQAGGSLRLSCAASGRIFGGYDMGWYRQAPGKERELVASISYSGGTTYYADSVKGRFTISRDNAKNTVYLQMNSLKPEDSAVYYCAALSQHNDSGYDYWGQGTQVTVSS | high polyreactivity
QVQLVESGGGLLQAGGSLRLSCAASGRIFSFNTMGWYRQAPGKERELVAAISRGGSTYYADSVKGRFTNSRDNAKNTVYLQMNSMKPEDTAVYYCNALLPPGSRKYNYWGQGSQVTVSS | high polyreactivity
QVQLVESGGGLLQAGGSLRLSCAASGRTFETNAMGWNRQAPGKQRELVASINWSGGSTYYADSVKGRFTISRDNAKNSVYLQMNSLKPEDTAVYYCAADHSYWDWWSYYYWGQGTQVTVSW | low polyreactivity
QVQLVESGGGLLQAGGSLRLSCAASGRTFNYYAMGWYRQAPWKESELVADIRGRGGSTYYADSVKGRFTISRDNAKITVYLQMNSLKPEDKAVYYCARRSPYPYSIYYYWGQGTQVTVSS | high polyreactivity
QVQLVESGGGLLQAGGSLRLSCAASGRTFRYYAMGWYRQAPGKERELVAAISSGGSSTYYADSVKGRFTISRDNAKNTVYLQMNSLKPEDTAVYYCAAGYYPFNYWGQGTQVTVSS | high polyreactivity
QVQLVESGGGLLQAGGSLRLSCAASGRTFRYYTMGWYRQAPGKEREFVAAISSTGRTYYGDSVKGRFTISRDNAKNTVYLQMNSLKPEDTAVYYCAATFIQVVVNVQLYDYDYWGQGTQVTVSS | low polyreactivity
QVQLVESGGGLLQAGGSLRLSCAASGRTFSVNAMGWYRQAPGKERELVATITWSGSSTSYADSVKGRFTISRDNAKNTVDLQMNSLKPEDTAVYYCAADLWTLIYLTDTYGHWGQATQVTVSS | low polyreactivity
